In patent US20250213627A1, “RECOMBINANT MICROORGANISM-BASED METHODS AND COMPOSITIONS FOR TREATMENT OF DISEASE” (Baylor College of Medicine, priority 2021, published 2025):

Experiments:
rat IgG = experiment: ELISA positive control, wells coated with 1 µg/ml rat IgG, anti-rat IgG-HRP and TMB
[1] = target: Kv1.3 potassium channel (species not stated for this experiment); experiment: cell-based or functional assay

Row | Substance | reading at 450 nm (rat IgG) | block of peak Kv1.3 currents by culture supernatant (patch-clamp) [1]
1 | anti-rat IgG-HRP (antibody) | 3.3 OD 450 nm | 
2 | HA-tagged ShK-235 secreted by LrS235-HA (peptide) |  | 25%
